B1: PBXIP1 (parent)
chain: LPVETLGPASRMDPESERALQAPH
B2: MYOZ1 (parent)
chain: FSDSSMDHFQKFLPTVGGQLGTAG

Variants of: B1
Assay: protein stability index of a GFP-peptide fusion (GPS, HEK-293T) (PSI 1-6); higher = more stable
Settings: c terminus: a fixed tail appended
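Also: lentivirally expressed fusions sorted by FACS into six bins by GFP to DsRed ratio, PSI derived from sequencing read proportions per bin multiplied by bin number.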

Protein stability index of substitutions, site by site:
S16: R 3.56 | T 4.35 | V 4.31 | W 4.12 | Y 4.05
E17: A 3.65 | C 3.76 | D 3.97 | F 3.61 | G 4.13 | H 3.92 | I 3.1 | K 4.19 | L 3.72 | M 3.9 | N 4.29 | P 4.18 | Q 4.06 | R 3.91 | S 4.56 | T 4.23 | V 4.62 | W 3.4 | Y 3.92
R18: A 4.57 | C 4.12 | D 4.44 | E 4.47 | F 4.07 | G 4.66 | H 4.77 | I 4.29 | K 4.6 | L 3.69 | M 4.73 | N 4.62 | P 4.18 | Q 4.55 | S 4.19 | T 4.82 | V 4.45 | W 3.66 | Y 3.7
A19: C 4.48 | D 4.41 | E 4.68 | F 4.05 | G 4.23 | H 4.31 | I 4 | K 4.32 | L 4.22 | M 4.21 | N 4.45 | P 4.71 | Q 4.46 | R 4.09 | S 4.19 | T 4.63 | V 4.46 | W 3.82 | Y 3.64
L20: A 4.26 | C 3.99 | D 4.92 | E 4.81 | F 4.28 | G 4.46 | H 4.27 | I 4.55 | K 4.41 | M 4.45 | N 4.42 | P 4.72 | Q 4.7 | R 4.86 | S 4.49 | T 4.58 | V 3.82 | W 3.7 | Y 4.14
Q21: A 3.93 | C 4.14 | D 4 | E 4.79 | F 3.8 | G 3.97 | H 3.92 | I 4.09 | K 4.28 | L 3.96 | M 4.05 | N 4.28 | P 4.53 | R 4.44 | S 4.45 | T 4.55 | V 4.39 | W 3.22 | Y 3.67
A22: C 4.45 | D 4.7 | E 4.68 | F 4.01 | G 4.72 | H 4.76 | I 4.23 | K 4.4 | L 3.98 | M 3.68 | N 4.5 | P 4.27 | Q 4.45 | R 4.78 | S 4.36 | T 4.7 | V 4.2 | W 3.25 | Y 4.31
P23: A 4.09 | C 4.19 | D 4.6 | E 4.8 | F 3.98 | G 5.01 | H 4.45 | I 4.28 | K 4.57 | L 4.49 | M 4.16 | N 4.26 | Q 4.06 | R 4.66 | S 4.78 | T 4.57 | V 3.92 | W 3.92 | Y 3.99
H24: A 4.44 | C 4.05 | D 4.75 | E 4.36 | F 4.21 | G 4.26 | I 3.72 | K 4.5 | L 3.94 | M 4.23 | N 4.61 | P 4.03 | Q 4.31 | R 4.16 | S 4.75 | T 4.59 | V 4.47 | W 4.07 | Y 4.07

Variants of: B2
Assay: as above
Settings: c terminus: a fixed tail appended

Protein stability index: each site, then its substitutions
G18: K 2 | H 2.04 | A 1.92 | C 2.04 | N 2.67 | E 3.48 | L 2.3 | Y 1.64 | F 1.51 | R 2.79 | Q 2.63
D7: I 2.3 | T 2.15 | H 1.82 | K 1.8
H8: Q 2.58 | K 2.15 | W 2.22 | P 2.36 | V 1.76 | D 2.49 | A 1.84 | G 2.07 | L 1.35 | S 1.53
T15: V 2.66 | Q 2.94 | G 2.46 | C 2.33 | L 1.9 | P 2.51 | Y 1.93
S5: L 3.12 | A 3.02 | F 2.22 | M 1.82 | K 2.07 | W 2.38
A23: K 2.14 | W 2.01 | I 1.91 | G 2.77 | R 2.95 | E 2.92 | S 1.83 | M 1.63 | L 2.01 | Y 2.19
G21: E 2.35 | F 1.62 | W 1.76 | M 2.28 | H 2.14 | L 2.71 | I 1.76 | A 1.87 | S 1.69
D3: Y 2.02 | K 1.63 | Q 2.27 | W 2.06 | H 1.88 | I 1.89 | R 1.49 | M 1.45 | T 1.96
S2: Q 2.59 | C 1.5 | I 1.92 | F 1.62 | H 1.5 | D 2.95 | A 1.77 | Y 1.83
F9: T 2.48 | W 1.89 | D 4.52
T22: H 1.86 | I 2.57 | Y 2.05 | F 1.82 | E 3.05
S4: W 2.89 | Q 1.92 | T 2.65 | E 2.94 | F 2.87 | D 2.15 | G 2.15 | K 2.12 | P 2.42
V16: H 2.75 | F 2.75 | N 2.26 | G 2.98 | R 2.46 | S 2.94 | P 2.56
G17: E 2.98 | D 2.33 | S 2.26 | Y 2.26 | P 2.59 | I 2.47
L20: M 2.35 | Q 2.66 | W 1.56 | G 3.24 | P 3.12 | S 3.71 | A 2.58
M6: A 2.65 | E 3 | D 3.22 | C 1.96 | R 2.66 | P 2.56 | I 2.04 | H 2.25 | K 3.08 | F 3.55
L13: P 3.06 | V 2.97 | M 3.29 | C 2.75 | T 3.53 | W 1.82 | N 3.1 | K 3.53
F12: N 3.68 | W 1.85 | A 3.98 | L 2.88 | I 2.08 | C 2.92
G24: E 2.54 | Y 1.2 | L 2.36 | N 2.03 | P 2.25 | V 2.42 | S 1.98
Q19: V 1.89 | N 2.08 | W 2.35 | L 2.16 | C 1.96 | F 1.42 | A 1.79 | K 2.33 | T 2.29 | S 2.2
F1: T 3.51 | P 3.6 | L 3.11 | W 2.56 | E 3.38 | G 2.41 | A 3.62 | C 2.26 | K 3.77 | S 4.12
Q10: D 3.15 | P 3.23 | M 2.02 | L 1.3 | Y 1.47 | K 2.14
K11: E 3.51 | I 2.12 | S 2.37 | Q 2.66 | A 1.79
P14: D 1.61 | N 1.47 | M 2.68 | C 1.41
